Residue numbers refer to the chain shown, from its start. Blank lines part the entries; values can stand above or below the binder they belong to.
Assays:
[1] = target: T1, recombinant mouse Sortilin (mouse, UniProt Q6PHU5 74-825); test: flow cytometry, 293 cells expressing recombinant mouse Sortilin, 10 ug/ml antibody
T1 construct: also called mSort
Method: (§1) Cells were harvested, plated at 10⁵/ml in a 96 well plate, washed, and incubated in 100 μl PBS containing 10 μg/ml Mab and 2% FBS for 1 hour in ice. Cells were then washed twice and incubated in 100 μl PBS+2% FBS containing 5 μg/ml PE-conjugated anti-human secondary antibody for 30 minutes in ice. Cells were washed twice in cold PBS and data was acquired on a BD FACS Canto. Data analysis and calculation of MFI values was performed with FlowJo (TreeStar) software version 10.0.7.

[2] = target: T2, recombinant human Sortilin (human, UniProt Q99523 78-830); test: flow cytometry, 293 cells expressing recombinant human Sortilin, 10 ug/ml antibody
T2 construct: also called hSort; SORT1
Method: as §1

human Sortilin = human Sortilin (human, UniProt Q99523 78-830); test: cell-based or functional assay

B1: anti-Sortilin antibody S-55 (antibody, V domains shown)
VH: QVQLQESGPGLVKPSETLSLTCAVSGYSISSGYYWGWIRQPPGKGLEWIGSIYHSGSTYYNPSLKSRVTISVDTSKNQFSLKLSSVTAADTAVYYCARGRPELGWDKYFQHWGQGTLVTVSS
VL: DIQMTQSPSSVSASVGDRVTITCRASQGISRWLAWYQQKPGKAPKLLIYAASSLQSGVPSRFSGSGSGTDFTLTISSLQPEDFATYYCQQANALPTFGGGTKVEIK
notes: IgG
MFI [1]: 21400 MFI | MFI [2]: 9480 MFI

B3: anti-Sortilin antibody S-51 (antibody, V domains shown)
VH: QVQLVESGGGVVQPGRSLRLSCAASGFTFSSYGMHWVRQAPGKGLEWVAVISYDGSNKYYADSVKGRFTISRDNSKNTLYLQMNSLRAEDTAVYYCAKGLEYYDSSRLYYPYYYYMDVWGKGTTVTVSS
VL: EIVLTQSPATLSLSPGERATLSCRASQSVSSYLAWYQQKPGQAPRLLIYDASKRATGIPARFSGSGSGTDFTLTISSLEPEDFAVYYCQQRSNYPITFGGGTKVEIK
notes: IgG
MFI [1]: 21900 MFI | MFI [2]: 12200 MFI

B5: anti-Sortilin antibody S-2 (antibody, V domains shown)
VH: not shown
VL: DIQMTQSPSSLSASVGDRVTITCRASQSISSYLNWYQQKPGKAPKLLIYAASSLQSGVPSRFSGSGSGTDFTLTISSLQPEDFATYYCQQSDVSPITFGGGTKVEIK
notes: IgG
MFI [1]: 22400 MFI | MFI [2]: 8430 MFI

B8: anti-Sortilin antibody S-65 (antibody, V domains shown)
VH: QVQLQESGPGLVKPSETLSLTCAVSGYSISSGYYWGWIRQPPGKGLEWIGSIYHSGSTYYNPSLKSRVTISVDTSKNQFSLKLSSVTAADTAVYYCAREGQLPTGTFDYWGQGTLVTVSS
VL: not shown
Percent reduction of Sortilin levels in U251 cells (human Sortilin): 37.3%

B9: anti-Sortilin antibody S-65 (antibody, V domains shown)
VH: B8 VH
VL: not shown
notes: IgG
MFI [1]: 17900 MFI | MFI [2]: 8070 MFI

B10: anti-Sortilin antibody S-14 (antibody, V domains shown)
VH: QVQLVQSGAEVKKPGASVKVSCKASGYTFTSYYMSWVRQAPGQGLEWMGIINPSGGSTSYAQKFQGRVTMTRDTSTSTVYMELSSLRSEDTAVYYCARDPSGIAAAGPASRYYYGMDVWGQGTTVTVSS
VL: B5 VL with A50G, S91H, D92Y, S94G, I96F
notes: IgG
MFI [1]: 16500 MFI | MFI [2]: 8010 MFI

B13: anti-Sortilin antibody S-12 (antibody, V domains shown)
VH: QVQLVQSGAEVKKPGASVKVSCKASGYTFTSYGISWVRQAPGQGLEWMGWISAYNGNTNYAQKLQGRVTMTTDTSTSTAYMELRSLRSDDTAVYYCARDLPKYKWGWFDPWGQGTLVTVSS
VL: not shown
Percent reduction of Sortilin levels in U251 cells (human Sortilin): 12%

B14: anti-Sortilin antibody S-12 (antibody, V domains shown)
VH: B13 VH
VL: not shown
notes: IgG
MFI [1]: 18800 MFI | MFI [2]: 9760 MFI

B15: anti-Sortilin antibody S-60 (antibody, V domains shown)
VH: QVQLQESGPGLVKPSETLSLTCAVSGYSISSGYYWGWIRQPPGKGLEWIGTIYHSGSTYYNPSLKSRVTISVDTSKNQFSLKLSSVTAADTAVYYCARQGSIKQGYYGMDVWGQGTTVTVSS
VL: not shown
Fold increase in Progranulin levels in U251 cells (human Sortilin): 2.24 fold | Percent reduction of Sortilin levels in U251 cells (human Sortilin): 59.5%

B16: anti-Sortilin antibody S-74 (antibody, V domains shown)
VH: QVQLQESGPGLVKPSQTLSLTCTVSGGSISSGTYYWSWIRQHPGKGLEWIGYIYYSGSTYYNPSLKSRVTISVDTSKNQFSLKLSSVTAADTAVYYCARGVGRYRVADYWGQGTLVTVSS
VL: EIVMTQSPATLSLSPGERATLSCRASQSVSSYLAWYQQKPGQAPRLLIYDSSNRATGIPARFSGSGSGTDFTLTISSLEPEDFAVYYCQQETNMPPITFGGGTKVEIK
Percent reduction of Sortilin levels in U251 cells (human Sortilin): 22.1%

B17: anti-Sortilin antibody S-83 (antibody, V domains shown)
VH: QLQLQESGPGLVKPSETLSLTCTVSGGSISSSSYYWGWIRQPPGKGLEWIGSIYYSGSTYYNPSLKSRVTISVDTSKNQFSLKLSSVTAADTAVYYCARGSPTWLRDYYMDVWGKGTTVTVSS
VL: EIVLTQSPATLSVSPGERATLSCRASQSVSSNLAWYQQKPGQAPRLLIYGASTRATGIPARFSGSGSGTEFTLTISSLQSEDFAVYYCQQYNAFPPTFGGGTKVEIK
Percent reduction of Sortilin levels in U251 cells (human Sortilin): 48.1%

B18: anti-Sortilin antibody S-9 (antibody, V domains shown)
VH: QVQLVQSGAEVKKPGASVKVSCKASGYTFTSYGISWVRQAPGQGLEWMGWISAYNGNTNYAQKLQGRVTMTTDTSTSTAYMELRSLRSDDTAVYYCARDPGGYGPTLYYYYGMDVWGQGTTVTVSS
VL: B17 VL with L4M, A93I, F94Y, P96L
notes: IgG
MFI [1]: 22200 MFI | MFI [2]: 10300 MFI

B19: anti-Sortilin antibody S-6 (antibody, V domains shown)
VH: not shown
VL: B17 VL with L4M, Y91V, N92A, A93N, F94Y, P96R
notes: IgG
MFI [1]: 25600 MFI | MFI [2]: 11100 MFI

B20: anti-Sortilin antibody S-58 (antibody, V domains shown)
VH: QVQLQESGPGLVKPSETLSLTCAVSGYSISSGYYWGWIRQPPGKGLEWIGSIYHSGNTYYNPSLKSRVTISVDTSKNQFSLKLSSVTAADTAVYYCARGPPELGKMYFQHWGQGTLVTVSS
VL: B17 VL with Y91D, N92R, A93K, F94G, P96L
notes: IgG
MFI [1]: 15100 MFI | MFI [2]: 7770 MFI

B22: anti-Sortilin antibody S-4 (antibody, V domains shown)
VH: not shown
VL: B17 VL with L4M, Y91F, N92R, A93V, F94L
notes: IgG
MFI [1]: 15700 MFI | MFI [2]: 9120 MFI

B23: anti-Sortilin antibody S-69 (antibody, V domains shown)
VH: QVQLQESGPGLVKPSQTLSLTCTVSGGSISSGGYYWSWIRQHPGKGLEWIGYIYYSGSTYYNPSLKSRVTISVDTSKNQFSLKLSSVTAADTAVYYCARDRGGTHFGADHYYYGMDVWGQGTMVTVSS
VL: B17 VL with L4M, N32S, Y91A, N92A, A93D, F94W, P96I
Percent reduction of Sortilin levels in U251 cells (human Sortilin): 23%

The next lines start with the values.

MFI [1]: 2630 MFI | MFI [2]: 7410 MFI
B2: anti-Sortilin antibody S-40 (antibody, V domains shown)
VH: not shown
VL: B3 VL with L4M, K53N, N93A, Y94L, I96F
notes: IgG

Percent reduction of Sortilin levels in U251 cells (human Sortilin): 37.4%
B4: anti-Sortilin antibody S-64 (antibody, V domains shown)
VH: B8 VH with E99A, G100E, Q101H, L102R, P103G, T104P, G105R, T106Y, Y109L, Q112R
VL: B5 VL with S30N, S91L, V93S, S94T

Percent reduction of Sortilin levels in U251 cells (human Sortilin): 20.3%
B6: anti-Sortilin antibody S-76 (antibody, V domains shown)
VH: QVQLQESGPGLVKPSQTLSLTCTVSGGSISSGGYYWSWIRQHPGKGLEWIGSIYYSGSTYYNPSLKSRVTISVDTSKNQFSLKLSSVTAADTAVYYCARGVGIQQQLVLGFDPWGQGTLVTVSS
VL: B5 VL with Y32F, Y49S, D92Y, V93R, S94E

MFI [2]: 6280 MFI
B7: anti-Sortilin antibody S-16 (antibody, V domains shown)
VH: QVQLVQSGAEVKKPGSSVKVSCKASGGTFSSYAISWVRQAPGQGLEWMGGIIPIFGTANYAQKFQGRVTITADESTSTAYMELSSLRSEDTAVYYCARSPYSGTRDFDLWGRGTLVTVSS
VL: B5 VL with L11V, S28G, Y32W, N34A, S53N, S91G, D92N, V93S, S94Y
notes: IgG

MFI [2]: 7930 MFI
B11: anti-Sortilin antibody S-64 (antibody, V domains shown)
VH: B8 VH with E99A, G100E, Q101H, L102R, P103G, T104P, G105R, T106Y, Y109L, Q112R
VL: B5 VL with S30N, S91L, V93S, S94T
notes: IgG

MFI [1]: 19400 MFI | MFI [2]: 8660 MFI
B12: anti-Sortilin antibody S-10 (antibody, V domains shown)
VH: B18 VH
VL: EIVMTQSPATLSVSPGERATLSCRASQSVSSNLAWYQQKPGQAPRLLIYGASTRATGIPARFSGSGSGTEFTLTISSLQSEDFAVYYCQQYADWPPITFGGGTKVEIK
notes: IgG

MFI [1]: 11900 MFI | MFI [2]: 8140 MFI
B21: anti-Sortilin antibody S-48 (antibody, V domains shown)
VH: QVQLVESGGGVVQPGRSLRLSCAASGFTFSSYGMHWVRQAPGKGLEWVAVISYDGSNKYYADSVKGRFTISRDNSKNTLYLQMNSLRAEDTAVYYCARESGDRATLVYYYYYGMDVWGQGTTVTVSS
VL: B17 VL with L4M, G50S, A93S, F94W, P96I
notes: IgG

MFI [1]: 17600 MFI | MFI [2]: 8740 MFI
B24: anti-Sortilin antibody S-15 (antibody, V domains shown)
VH: B10 VH
VL: B17 VL with L4M, Y91A, N92R, A93L, F94G, P96W
notes: IgG

MFI [1]: 21800 MFI | MFI [2]: 7480 MFI
B25: anti-Sortilin antibody S-61 (antibody, V domains shown)
VH: QVQLQESGPGLVKPSETLSLTCAVSGYSISSGYYWGWIRQPPGKGLEWIGSIYHSGSTYYNPSLKSRVTISVDTSKNQFSLKLSSVTAADTAVYYCARGSPRFYYGSGSYLDLFDIWGQGTMVTVSS
VL: B17 VL with L4M, Q90E, N92L, A93N, F94Y, P96I
notes: IgG
